{"source": "patent US5861377", "key": {"[1]": {"molecular_target": "chymotrypsin (inhibition assay used during purification)"}, "[2]": {"molecular_target": "trypsin (inhibition assay used during purification)"}}}
{"substance": "hirustasin (Hirudo antistasin)", "values": [{"measurement": "specific activity (SA) of chymotrypsin inhibition, Mono S pool", "setting": "[1]", "value": 0.15, "unit": "IU/mg"}, {"measurement": "specific activity (SA) of trypsin inhibition, Mono S pool", "setting": "[2]", "value": 2.7, "unit": "IU/mg"}]}
